Experimental data as given in patent publication US20210275657A1 (published 2021).

Tests used:
[1] = biological target: T1, GATA3 neoORF (frameshift mutation of GATA3), common region peptide on HLA-A*02:01 (human); test: Summary statement of the same IL-2 peptide titration with TCR-transduced Jurkat cells and peptide loaded HEK 293T cells; full-length, on cells
[2] = biological target: T1, GATA3 neoORF (frameshift mutation of …); test: IL-2 release (Meso Scale Discovery) by TCR-transduced Jurkat cells, 10:1 with HEK 293T cells (endogenous HLA-A02:01) loaded overnight with titrated GATA3 peptide; FIG. 44; full-length, on cells

B1: GATA3 specific TCR clonotype 1 (TCR, V domains shown)
Valpha: SQKIEQNSEALNIQEGKTATLTCNYTNYSPAYLQWYRQDPGRGPVFLLLIRENEKEKRKERLKVTFDTTLKQSLFHITASQPADSATYLCALDIYGNNRLAFGKGNQVVVIP
Vbeta: DVKVTQSSRYLVKRTGEKVFLECVQDMDHENMFWYRQDPGLGLRLIYFSYDVKMKEKGDIPEGYSVSREKKERFSLILESASTNQTSMYLCASSLDFVLAGSYSYNEQFFGPGTRLTVL
- EC50 of peptide [1]: < 40 nM
- EC50 of peptide [2]: 37.9 nM
